Measurements reported in patent US20240002434A1 (ICHNOS SCIENCES, published 2024).
Where “and” joins values, the source holds several entries; their conditions need not be identical. Equal values may be shown once.

Key:
human FcγR3a [1] = molecular target: T1, human FcγR3a (human, UniProt P08637 17-208, limits assumed); experiment: SPR (Biacore), mean KD; Ab1 protein A eluate without high pH treatment (reference)
T1 construct: The construct and allotype (V158/F158) used in the Biacore assay are not described; also called FcgR3a
T1 sequence (P08637 17-208 limits assumed): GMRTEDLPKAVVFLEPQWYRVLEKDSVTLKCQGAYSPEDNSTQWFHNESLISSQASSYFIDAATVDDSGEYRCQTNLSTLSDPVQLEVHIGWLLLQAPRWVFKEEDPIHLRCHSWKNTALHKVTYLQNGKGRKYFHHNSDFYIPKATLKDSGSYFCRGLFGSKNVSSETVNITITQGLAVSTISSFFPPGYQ

human OX40 [2] = molecular target: T2, human OX40 (human, UniProt P43489 29-214, limits assumed); experiment: as above
T2 construct: The construct used in the Biacore assay is not described; also called OX40R; OX40 receptor
T2 sequence (looked up): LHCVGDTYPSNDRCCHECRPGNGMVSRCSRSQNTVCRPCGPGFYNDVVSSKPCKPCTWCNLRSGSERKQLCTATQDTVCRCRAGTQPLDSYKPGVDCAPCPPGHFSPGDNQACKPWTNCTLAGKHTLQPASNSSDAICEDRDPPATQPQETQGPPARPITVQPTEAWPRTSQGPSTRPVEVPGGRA

human FcγR3a [3] = molecular target: T1, human FcγR3a; experiment: SPR (Biacore), mean KD; Ab1 after 2 h at pH 11.2
human OX40 [4] = molecular target: T2, human OX40; experiment: SPR (Biacore), mean KD; Ab1 after 2 h at pH 11.2
human FcγR3a [5] = molecular target: T1, human FcγR3a; experiment: SPR (Biacore), mean KD; Ab1 after 1 h at pH 11.2
human OX40 [6] = molecular target: T2, human OX40; experiment: SPR (Biacore), mean KD; Ab1 after 1 h at pH 11.2
human FcγR3a [7] = molecular target: T1, human FcγR3a; experiment: SPR (Biacore), mean KD; Ab1 brought to pH 11.2 and neutralized at once (t0)
human OX40 [8] = molecular target: T2, human OX40; experiment: as above
Human EGFR-his [9] = molecular target: T3, Human EGFR-his (human, UniProt P00533 25-645); experiment: SPR, BEAT®3 captured on Protein G chip, EGFR-his as analyte; sample held at pH 11.2 for 2 h; mean of 2
T3 construct: Soluble his-tagged antigen injected as analyte in SPR; also called hsEGFR; not shown: his tag

[10] = molecular target: EGFR on SK-BR-3 target cells (UniProt P00533 25-1210, limits assumed); experiment: cell-based or functional assay
[11] = molecular target: CD3ε on Jurkat-NFAT responder cells (UniProt P07766 23-207); experiment: cell-based or functional assay
Sequence of CD3ε on Jurkat-NFAT responder cells (P07766 23-207): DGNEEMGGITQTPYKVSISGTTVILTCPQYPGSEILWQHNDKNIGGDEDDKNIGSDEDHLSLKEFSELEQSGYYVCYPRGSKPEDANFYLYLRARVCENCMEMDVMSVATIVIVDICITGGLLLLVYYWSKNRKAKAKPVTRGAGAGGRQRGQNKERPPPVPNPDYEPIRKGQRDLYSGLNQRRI

Human EGFR-his [12] = molecular target: T3, Human EGFR-his; experiment: SPR, BEAT®3 captured on Protein G chip, EGFR-his as analyte; sample held at pH 11.2 for 4 h
Human EGFR-his [13] = molecular target: T3, Human EGFR-his; experiment: SPR, BEAT®3 captured on Protein G chip, EGFR-his as analyte; sample held at pH 11.2 for 2 h
Human EGFR-his [14] = molecular target: T3, Human EGFR-his; experiment: SPR, BEAT®3 captured on Protein G chip, EGFR-his as analyte; sample held at pH 11.2 for 4 h; mean of 2
Human EGFR-his [15] = molecular target: T3, Human EGFR-his; experiment: SPR, BEAT®3 captured on Protein G chip, EGFR-his as analyte; sample held at pH 11.2 for 0 h
Human EGFR-his [16] = molecular target: T3, Human EGFR-his; experiment: SPR, BEAT®3 sample captured on Protein G chip, EGFR-his as analyte; mean of 4 reference replicates
Human EGFR-his [17] = molecular target: T3, Human EGFR-his; experiment: SPR, BEAT®3 captured on Protein G chip, EGFR-his as analyte; sample held at pH 11.2 for 24 h; mean of 2
Human EGFR-his [18] = molecular target: T3, Human EGFR-his; experiment: SPR, BEAT®3 captured on Protein G chip, EGFR-his as analyte; sample held at pH 11.2 for 24 h
Human EGFR-his [19] = molecular target: T3, Human EGFR-his; experiment: SPR, BEAT®3 captured on Protein G chip, EGFR-his as analyte; sample held at pH 11.2 for 0 h; mean of 2
human CD38 [20] = molecular target: T4, human CD38 (human, UniProt P28907 43-300, limits assumed); experiment: binding affinity assay; sample after S/D treatment
T4 construct: also called hsCD38; cluster of differentiation 38

human CD38 [21] = molecular target: T4, human CD38; experiment: binding affinity assay; reference sample, no treatment
human CD38 [22] = molecular target: T4, human CD38; experiment: surface plasmon resonance; mean KD; PA eluate without high pH treatment
human CD38 [23] = molecular target: T4, human CD38; experiment: binding affinity assay; sample after high pH treatment, against RS
human CD38 [24] = molecular target: T4, human CD38; experiment: binding affinity assay; sample after 0.8M Arg, pH 4.0
human CD38 [25] = molecular target: T4, human CD38; experiment: binding affinity assay; sample after high pH treatment
human CD38 [26] = molecular target: T4, human CD38; experiment: binding affinity assay; sample after 0.8M Arg, pH 5.5
human CD38 [27] = molecular target: T4, human CD38; experiment: binding affinity assay; sample after S/D treatment, against RS
human CD38 [28] = molecular target: T4, human CD38; experiment: surface plasmon resonance; mean KD; high pH hold time 2 h
human CD38 [29] = molecular target: T4, human CD38; experiment: surface plasmon resonance; mean KD; high pH hold time 1 h
human CD38 [30] = molecular target: T4, human CD38; experiment: binding affinity assay; sample after 0.8M Arg, pH 4.0, against RS
human CD38 [31] = molecular target: T4, human CD38; experiment: surface plasmon resonance; mean KD; high pH hold time 0 h
human CD38 [32] = molecular target: T4, human CD38; experiment: binding affinity assay; sample after 0.8M Arg, pH 5.5, against RS

B1: Ab1 (antibody, human IgG1, kappa)
chain 1: not shown
chain 2: EIVLTQSPATLSLSPGERATLSCRASSSVSYMHWYQQKPGQAPRPWIYATSNRATGIPARFSGSGSGTDYTLTISSLEPEDFAVYYCQQWSSNPWTFGQGTKVEIKRTVAAPSVFIFPPSDEQLKSGTASVVCLLNNFYPREAKVQWKVDNALQSGNSQESVTEQDSKDSTYSLSSTLTLSKADYEKHKVYACEVTHQGLSSPVTKSFNRGEC
notes: The samples PA eluate, t0, t1 and t2 are the same antibody before and after incubation at pH 11.2 for 0, 1 and 2 h; also called humanized IgG1; PA eluate
Work on B1 yielded a Kd (human FcγR3a [1]) of 689 nM, a Kd (human OX40 [2]) of 198 nM and a Kd (human FcγR3a [3]) of 638 nM. For the same binder, the Kd (human OX40 [4]) was 224 nM, the Kd (human FcγR3a [5]) was 744 nM and the Kd (human OX40 [6]) was 207 nM. It also gave a Kd (human FcγR3a [7]) of 760 nM and a Kd (human OX40 [8]) of 229 nM.

B2: BEAT®3 (bispecific antibody, human IgG1, kappa, L234A L235A)
chain 1: EVQLVESGGGLVQPGGSLRLSCAASGFTFNTYAMNWVRQAPGKGLEWVARIRSKYNNYATYYADSVKSRFTISRDDSKNTLYLQMNSLRAEDTAVYYCVRHGNFGNSYVSYFAYWGQGTTVTVSSGGGGSGGGGSGGGGSEIVVTQSPATLSVSPGERATLSCRSSTGAVTESNYANWVQEKPGQAFRGLIGGANKRAPGVPARFSGSLSGDEATLTISSLQSEDFAVYYCALFYSNTWVFGQGTKLEIKGGGGTQVQLQESGPGLVKPSETLSLTCTVSGGSVSSGDYYWTWIRQSPGKGLEWIGHIYYSGNTNYNPSLKSRLTISIDTSKTQFSLKLSSVTAADTAIYYCVRDRVTGAFDIWGQGTMVTVSSASTKGPSVFPLAPSSKSTSGGTAALGCLVKDYFPEPVTVSWNSGALTSGVHTFPAVLQSSGLYSLSSVVTVPSSSLGTQTYICNVNHKPSNTKVDKKVEPKSCDKTHTCPPCPAPEAAGGPSVFLFPPKPKDTLMISRTPEVTCVVVDVSHEDPEVQFKWYVDGVEVHNAKTKPREEQYNSTFRVVSVLTVLHQDWLNGKEYKCKVSNKALPAPIEKTISKTKGQPREPAVYTLPPSREEMTKNQVKLVCLVTGFYPSDIAVEWESSGQPENNYYTTPPMLDSDGSFSLVSWLNVDKSRWQQGNIFSCSVMHEALHNRFTQKSLSLSPG
chain 2: not shown
chain 3: DKTHTCPPCPAPEAAGGPSVFLFPPKPKDTLMISRTPEVTCVVVDVSHEDPEVKFNWYVDGVEVHNAKTKPREEQYNSTYRVVSVLTVLHQDWLNGKEYKCKVSNKALPAPIEKTISKAKGQPREPEVATFPPSRDELTKNQVTLVCLVTGFYPSDIAVEWESNGQPENNYKTDPPLLESDGSFALSSRLRVDKSRWQQGNVFSCSVMHEALHNHYTQKSLSLSPG
In the case of B2, the “Average rel KD” value (Human EGFR-his [9]) is reported as 1.02 ratio to reference, the “Relative potency (%) (Jurkat-NFAT luciferase reporter, EC50reference/EC50sample x 100, reference High pH t0)” value [10] is reported as 97% and 85% and 67% and the “Relative potency (%) (Jurkat-NFAT luciferase reporter, EC50reference/EC50sample x 100, reference High pH t0)” value [11] is reported as 97% and 85% and 67%. The “Relative KD R1” value (Human EGFR-his [12]) was 1.11 ratio to reference, the “Relative KD R1” value (Human EGFR-his [13]) was 1.02 ratio to reference and the “Average rel KD” value (Human EGFR-his [14]) was 1.09 ratio to reference. For the same binder, the “Relative KD R1” value (Human EGFR-his [15]) was 0.988 ratio to reference, the “Average rel KD” value (Human EGFR-his [16]) was 1 ratio to reference and the “Average rel KD” value (Human EGFR-his [17]) was 1.15 ratio to reference. The “Relative KD R1” value (Human EGFR-his [18]) was 1.17 ratio to reference and the “Average rel KD” value (Human EGFR-his [19]) was 0.98 ratio to reference.

B3: BEAT®2 (bispecific antibody, human IgG1, kappa, L234A L235A)
chain 1: not shown
chain 2: QVTLKESGPTLVKPTQTLTLTCTFSGLSLSTSGKGVGWIRQPPGKALEWLAHIWWDDDKRYNPALKSRLTITKDTSKNQVVLTMTNMDPVDTATYYCARIELGRSYVMDYWGQGTLVTVSSASTKGPSVFPLAPSSKSTSGGTAALGCLVKDYFPEPVTVSWNSGALTSGVHTFPAVLQSSGLYSLSSVVTVPSSSLGTQTYICNVNHKPSNTKVDKKVEPKSCDKTHTCPPCPAPEAAGGPSVFLFPPKPKDTLMISRTPEVTCVVVDVSHEDPEVQFKWYVDGVEVHNAKTKPREEQYNSTFRVVSVLTVLHQDWLNGKEYKCKVSNKALPAPIEKTISKTKGQPREPAVYTLPPSREEMTKNQVKLVCLVTGFYPSDIAVEWESSGQPENNYYTTPPMLDSDGSFSLVSWLNVDKSRWQQGNIFSCSVMHEALHNRFTQKSLSLSPG
chain 3: not shown
In the case of B3, the Kd (human CD38 [20]) is reported as 0.341 nM, the koff (human CD38 [20]) is reported as 0.000376 s⁻¹ and the kon (human CD38 [20]) is reported as 1.11e+06 M⁻¹ s⁻¹. For the same binder, the “% deviation EC50” value (human CD38 [21]) was 0%, the Kd (human CD38 [21]) was 0.442 nM and the koff (human CD38 [21]) was 0.000457 s⁻¹. The kon (human CD38 [21]) was 1.03e+06 M⁻¹ s⁻¹, the Kd (human CD38 [22]) was 0.483 nM and the “% deviation EC50” value (human CD38 [23]) was 1.7%. The Kd (human CD38 [24]) was 0.507 nM, the koff (human CD38 [24]) was 0.000521 s⁻¹ and the kon (human CD38 [24]) was 1.03e+06 M⁻¹ s⁻¹. The Kd (human CD38 [25]) was 0.467 nM, the koff (human CD38 [25]) was 0.000483 s⁻¹ and the kon (human CD38 [25]) was 1.04e+06 M⁻¹ s⁻¹. For the same binder, the Kd (human CD38 [26]) was 0.439 nM, the koff (human CD38 [26]) was 0.000459 s⁻¹ and the kon (human CD38 [26]) was 1.05e+06 M⁻¹ s⁻¹. For the same binder, the “% deviation EC50” value (human CD38 [27]) was -15.4%, the Kd (human CD38 [28]) was 0.485 nM and the Kd (human CD38 [29]) was 0.547 nM. The “% deviation EC50” value (human CD38 [30]) was 3.5%, the Kd (human CD38 [31]) was 0.504 nM and the “% deviation EC50” value (human CD38 [32]) was 0.7%.
